# Data taken from US20230295310A1 (ABCELLERA BIOLOGICS, published 2023).
# Target: human EGFR, C-terminal eGFP-tagged, on CHO-K1 cells (human, UniProt P00533 25-1210)
# Test: cell-based or functional assay
"EC50 CHO-K1 EGFR Low (nM); T cell activation bioassay, luciferase","EC50 CHO-K1 EGFR Med (nM); T cell activation bioassay, luciferase",Binder
0.0531 nM,0.00316 nM,"GOMP001_bsAb_016 (bispecific antibody, human IgG1, kappa, L234A L235A) heavy 1: QVQLVESGGGVVQPGRSLRLSCAASGFTFSGYGMHWVRYAPGKGLDWVAIIYYNGNNKYYADRVKGRFTISRDNSKNTLYLQMNSLRAEDTAVYYCARGGGYNWFDPWGRGTLVIVSSASTKGPSVFPLAPSSKSTSGGTAALGCLVKDYFPEPVTVSWNSGALTSGVHTFPAVLQSSGLYSLSSVVTVPSSSLGTQTYICNVNHKPSNTKVDKKVEPKSCDKTHTCPPCPAPEAAGGPSVFLFPPKPKDTLMISRTPEVTCVVVDVSHEDPEVKFNWYVDGVEVHNAKTKPREEQYNSTYRVVSVLTVLHQDWLNGKEYKCKVSNKALPAPIEKTISKAKGQPRRPRVYTLPPSREEMTKNQVSLVCLVKGFYPSDIAVEWESNGQPENNYKTTPPVLDSDGSFFLYSVLTVDKSRWQQGNVFSCSVMHEALHNHYTQKSLSLSPG light 1: not shown heavy 2: QVQLVQSGAEVKKPGASVKVSCKASGYTFTSHWMHWVRYAPGQGLEWIGEFNPSNGRTNYNEKFKSKATMTVDTSTNTAYMELSSLRSEDTAVYYCASRDYDYDGRYFDYWGRGTLVTVSSASTKGPSVFPLAPSSKSTSGGTAALGCLVKDYFPEPVTVSWNSGALTSGVHTFPAVLQSSGLYSLSSVVTVPSSSLGTQTYICNVNHKPSNTKVDKKVEPKSCDKTHTCPPCPAPEAAGGPSVFLFPPKPKDTLMISRTPEVTCVVVDVSHEDPEVKFNWYVDGVEVHNAKTKPREEQYNSTYRVVSVLTVLHQDWLNGKEYKCKVSNKALPAPIEKTISKAKGQPRRPRVYTLPPSREEMTKNQVSLVCLVKGFYPSDIAVEWESNGQPENNYKTTPPVLDSDGSFFLYSVLTVDKSRWQQGNVFSCSVMHEALHNHYTQKSLSLSPG light 2: DIQMTQSPSSLSASVGDRVTITCSASSSVTYMYWYQRKPGDAPKLLIYDTSNLASGVPSRFSGSGSGTDYTFTISSLQPEDIATYYCQQWSSHIFTFGQGTKVEIKRTVAAPSVFIFPPSDEQLKSGTASVVCLLNNFYPREAKVQWKVDNALQSGNSQESVTEQDSKDSTYSLSSTLTLSKADYEKHKVYACEVTHQGLSSPVTKSFNRGEC"
0.945 nM,0.102 nM,"GOMP001_bsAb_017 (bispecific antibody, human IgG1, kappa, L234A L235A) heavy 1: QVQLVQSGAEVKKPGASVKVSCKASGYTFTSHWMHWVRKAPGQGLEWIGEFNPSNGRTNYNEEFKSKATMTVDTSTNTAYMELSSLRSEDTAVYYCASRDYDYDGRYFDYWGQGTLVTVSSASTKGPSVFPLAPSSKSTSGGTAALGCLVADYFPEPVTVSWNSGALTSGVHTFPAVLQSSGLYSLSSVVTVPSSSLGTQTYICNVNHKPSNTKVDEKVEPKSCDKTHTCPPCPAPEAAGGPSVFLFPPKPKDTLMISRTPEVTCVVVDVSHEDPEVKFNWYVDGVEVHNAKTKPREEQYNSTYRVVSVLTVLHQDWLNGKEYKCKVSNKALPAPIEKTISKAKGQPREPQVYTLPPSREEMTDNQVSLTCLVKGFYPSDIAVEWESNGQPENNYKTTPPVLMSDGSFFLASKLTVDKSRWQQGNVFSCSVMHEALHNHYTQKSLSLSPG light 1: RIQMTQSPSSLSASVGDRVTITCSASSSVTYMYWYQDKPGKAPKLLIYDTSNLASGVPSRFSGSGSGTDYTFTISSLQPEDIATYYCQQWSSHIFTFGQGTKVEIKRTVAAPSVFIFPPSDKQLKSGTARVVCLLNNFYPREAKVQWKVDNALQSGNSQESVTEQDSKDSTYSLSSTLTLSKADYEKHKVYACEVTHQGLSSPVTKSFNRGEC heavy 2: EVQLVESGGDLVQPGRSLRLSCAASGFTFDDCVIHWVRYAPGKGLEWVSGITWNSGRIGYADRVKGRFTISRDNAKNSLYLQMNSLRVEDTALYYCAKEGNYDFWSTYYRGYFDLWGRGTLVTVSSASTKGPSVFPLAPSSKSTSGGTAALGCLVKDYFPEPVTVSWNSGALTSGVHTFPAVLQSSGLYSLSSVVTVPSSSLGTQTYICNVNHKPSNTKVDKKVEPKSCDKTHTCPPCPAPEAAGGPSVFLFPPKPKDTLMISRTPEVTCVVVDVSHEDPEVKFNWYVDGVEVHNAKTKPREEQYNSTYRVVSVLTVLHQDWLNGKEYKCKVSNKALPAPIEKTISKAKGQPRRPRVYTLPPSREEMTKNQVSLVCLVKGFYPSDIAVEWESNGQPENNYKTTPPVLDSDGSFFLYSVLTVDKSRWQQGNVFSCSVMHEALHNHYTQKSLSLSPG light 2: DIQMTQSPSSLSASVGDRVTITCRASQGIRNDLGWYQRKPGDAPKRLIYAASSLQGGVPLRFSGSGSGTEFTLTISSLQPEDFATYYCLQHNSYPYTFGQGTKLEIKRTVAAPSVFIFPPSDEQLKSGTASVVCLLNNFYPREAKVQWKVDNALQSGNSQESVTEQDSKDSTYSLSSTLTLSKADYEKHKVYACEVTHQGLSSPVTKSFNRGEC"

# Second part, the binder before the results:
Binder,"EC50 CHO-K1 EGFR Low (nM); T cell activation bioassay, luciferase","EC50 CHO-K1 EGFR Med (nM); T cell activation bioassay, luciferase"
"GOMP001_bsAb_013 (bispecific antibody, human IgG1, kappa, L234A L235A) heavy 1: QVQLVQSGAEVKKPGASVKVSCKASGYTFTSHWMHWVRKAPGQGLEWIGEFNPSNGRTNYNEEFKSKATMTVDTSTNTAYMELSSLRSEDTAVYYCASRDYDYDGRYFDYWGQGTLVTVSSASTKGPSVFPLAPSSKSTSGGTAALGCLVADYFPEPVTVSWNSGALTSGVHTFPAVLQSSGLYSLSSVVTVPSSSLGTQTYICNVNHKPSNTKVDEKVEPKSCDKTHTCPPCPAPEAAGGPSVFLFPPKPKDTLMISRTPEVTCVVVDVSHEDPEVKFNWYVDGVEVHNAKTKPREEQYNSTYRVVSVLTVLHQDWLNGKEYKCKVSNKALPAPIEKTISKAKGQPREPQVYTLPPSREEMTDNQVSLTCLVKGFYPSDIAVEWESNGQPENNYKTTPPVLMSDGSFFLASKLTVDKSRWQQGNVFSCSVMHEALHNHYTQKSLSLSPG light 1: RIQMTQSPSSLSASVGDRVTITCSASSSVTYMYWYQDKPGKAPKLLIYDTSNLASGVPSRFSGSGSGTDYTFTISSLQPEDIATYYCQQWSSHIFTFGQGTKVEIKRTVAAPSVFIFPPSDKQLKSGTARVVCLLNNFYPREAKVQWKVDNALQSGNSQESVTEQDSKDSTYSLSSTLTLSKADYEKHKVYACEVTHQGLSSPVTKSFNRGEC heavy 2: QVQLVQSGAEVKKPGASVKVSCKASGYTFTSYDINWVRYATGQGLEWMGWMNPKSGKTGYAQKFQGRITMTRNTPISTVYMDLSSLRSEDTAVYYCAREGHYDFWTGYYSFDYWGRGTLVTVSSASTKGPSVFPLAPSSKSTSGGTAALGCLVKDYFPEPVTVSWNSGALTSGVHTFPAVLQSSGLYSLSSVVTVPSSSLGTQTYICNVNHKPSNTKVDKKVEPKSCDKTHTCPPCPAPEAAGGPSVFLFPPKPKDTLMISRTPEVTCVVVDVSHEDPEVKFNWYVDGVEVHNAKTKPREEQYNSTYRVVSVLTVLHQDWLNGKEYKCKVSNKALPAPIEKTISKAKGQPRRPRVYTLPPSREEMTKNQVSLVCLVKGFYPSDIAVEWESNGQPENNYKTTPPVLDSDGSFFLYSVLTVDKSRWQQGNVFSCSVMHEALHNHYTQKSLSLSPG light 2: DIQMTQSPSSLSASVGDRVTITCRASQGIRNDLGWYQRTPGDAPKRLIYAASSLQSGVPSRFSGSGSGTEFTLTISSLQPEDFATYYCLQHYSYPYTFGQGTKLEIKRTVAAPSVFIFPPSDEQLKSGTASVVCLLNNFYPREAKVQWKVDNALQSGNSQESVTEQDSKDSTYSLSSTLTLSKADYEKHKVYACEVTHQGLSSPVTKSFNRGEC",1.31 nM,0.239 nM
"GOMP001_bsAb_015 (bispecific antibody, human IgG1, kappa, L234A L235A) heavy 1: QVQLVQSGAEVKKPGASVKVSCKASGYTFTSHWMHWVRKAPGQGLEWIGEFNPSNGRTNYNEEFKSKATMTVDTSTNTAYMELSSLRSEDTAVYYCASRDYDYDGRYFDYWGQGTLVTVSSASTKGPSVFPLAPSSKSTSGGTAALGCLVADYFPEPVTVSWNSGALTSGVHTFPAVLQSSGLYSLSSVVTVPSSSLGTQTYICNVNHKPSNTKVDEKVEPKSCDKTHTCPPCPAPEAAGGPSVFLFPPKPKDTLMISRTPEVTCVVVDVSHEDPEVKFNWYVDGVEVHNAKTKPREEQYNSTYRVVSVLTVLHQDWLNGKEYKCKVSNKALPAPIEKTISKAKGQPREPQVYTLPPSREEMTDNQVSLTCLVKGFYPSDIAVEWESNGQPENNYKTTPPVLMSDGSFFLASKLTVDKSRWQQGNVFSCSVMHEALHNHYTQKSLSLSPG light 1: RIQMTQSPSSLSASVGDRVTITCSASSSVTYMYWYQDKPGKAPKLLIYDTSNLASGVPSRFSGSGSGTDYTFTISSLQPEDIATYYCQQWSSHIFTFGQGTKVEIKRTVAAPSVFIFPPSDKQLKSGTARVVCLLNNFYPREAKVQWKVDNALQSGNSQESVTEQDSKDSTYSLSSTLTLSKADYEKHKVYACEVTHQGLSSPVTKSFNRGEC heavy 2: QVQLVESGGGVVQPGRSLRLSCAASGFTFSGYGMHWVRYAPGKGLDWVAIIYYNGNNKYYADRVKGRFTISRDNSKNTLYLQMNSLRAEDTAVYYCARGGGYNWFDPWGRGTLVIVSSASTKGPSVFPLAPSSKSTSGGTAALGCLVKDYFPEPVTVSWNSGALTSGVHTFPAVLQSSGLYSLSSVVTVPSSSLGTQTYICNVNHKPSNTKVDKKVEPKSCDKTHTCPPCPAPEAAGGPSVFLFPPKPKDTLMISRTPEVTCVVVDVSHEDPEVKFNWYVDGVEVHNAKTKPREEQYNSTYRVVSVLTVLHQDWLNGKEYKCKVSNKALPAPIEKTISKAKGQPRRPRVYTLPPSREEMTKNQVSLVCLVKGFYPSDIAVEWESNGQPENNYKTTPPVLDSDGSFFLYSVLTVDKSRWQQGNVFSCSVMHEALHNHYTQKSLSLSPG light 2: not shown",0.515 nM,0.0267 nM
"GOMP001_bsAb_014 (bispecific antibody, human IgG1, kappa, L234A L235A) heavy 1: QVQLVQSGAEVKKPGASVKVSCKASGYTFTSYDINWVRYATGQGLEWMGWMNPKSGKTGYAQKFQGRITMTRNTPISTVYMDLSSLRSEDTAVYYCAREGHYDFWTGYYSFDYWGRGTLVTVSSASTKGPSVFPLAPSSKSTSGGTAALGCLVKDYFPEPVTVSWNSGALTSGVHTFPAVLQSSGLYSLSSVVTVPSSSLGTQTYICNVNHKPSNTKVDKKVEPKSCDKTHTCPPCPAPEAAGGPSVFLFPPKPKDTLMISRTPEVTCVVVDVSHEDPEVKFNWYVDGVEVHNAKTKPREEQYNSTYRVVSVLTVLHQDWLNGKEYKCKVSNKALPAPIEKTISKAKGQPRRPRVYTLPPSREEMTKNQVSLVCLVKGFYPSDIAVEWESNGQPENNYKTTPPVLDSDGSFFLYSVLTVDKSRWQQGNVFSCSVMHEALHNHYTQKSLSLSPG light 1: DIQMTQSPSSLSASVGDRVTITCRASQGIRNDLGWYQRTPGDAPKRLIYAASSLQSGVPSRFSGSGSGTEFTLTISSLQPEDFATYYCLQHYSYPYTFGQGTKLEIKRTVAAPSVFIFPPSDEQLKSGTASVVCLLNNFYPREAKVQWKVDNALQSGNSQESVTEQDSKDSTYSLSSTLTLSKADYEKHKVYACEVTHQGLSSPVTKSFNRGEC heavy 2: QVQLVQSGAEVKKPGASVKVSCKASGYTFTSHWMHWVRYAPGQGLEWIGEFNPSNGRTNYNEKFKSKATMTVDTSTNTAYMELSSLRSEDTAVYYCASRDYDYDGRYFDYWGRGTLVTVSSASTKGPSVFPLAPSSKSTSGGTAALGCLVKDYFPEPVTVSWNSGALTSGVHTFPAVLQSSGLYSLSSVVTVPSSSLGTQTYICNVNHKPSNTKVDKKVEPKSCDKTHTCPPCPAPEAAGGPSVFLFPPKPKDTLMISRTPEVTCVVVDVSHEDPEVKFNWYVDGVEVHNAKTKPREEQYNSTYRVVSVLTVLHQDWLNGKEYKCKVSNKALPAPIEKTISKAKGQPRRPRVYTLPPSREEMTKNQVSLVCLVKGFYPSDIAVEWESNGQPENNYKTTPPVLDSDGSFFLYSVLTVDKSRWQQGNVFSCSVMHEALHNHYTQKSLSLSPG light 2: DIQMTQSPSSLSASVGDRVTITCSASSSVTYMYWYQRKPGDAPKLLIYDTSNLASGVPSRFSGSGSGTDYTFTISSLQPEDIATYYCQQWSSHIFTFGQGTKVEIKRTVAAPSVFIFPPSDEQLKSGTASVVCLLNNFYPREAKVQWKVDNALQSGNSQESVTEQDSKDSTYSLSSTLTLSKADYEKHKVYACEVTHQGLSSPVTKSFNRGEC",0.238 nM,0.0722 nM
